Results from US20190292247A1.

Key:
Test in all cases: ELISA on immobilized antigen, streptavidin-HRP detection; value is the average over oligomer, monomer and fibril
[1] = target: amyloid beta 1-42 oligomer (UniProt P05067)
[2] = target: amyloid beta 1-42 monomer (UniProt P05067)
amyloid beta 1-42 fibril = amyloid beta 1-42 fibril (UniProt P05067)

Measured: EC50

Chain of amyloid beta 1-42 monomer (P05067 672-713 limits assumed): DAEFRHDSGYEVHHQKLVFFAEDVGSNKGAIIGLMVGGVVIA
Chain of amyloid beta 1-42 oligomer (P05067 672-713 limits assumed): as above
Chain of amyloid beta 1-42 fibril (P05067 672-713 limits assumed): as above

6E10 antibody (biotinylated)
0.031 µg/mL: all assays above
